Measurements published in patent US20250127885A1.
pEC50, pKd: −log10 of the molar value.

Assays:
[1] = target: human CD16A F158 allotype (human) (UniProt P08637); assay: BLI (Octet RED96e), steady state; hu4D5 variant on FAB2G tips, CD16A F158 5000-156.25 nM, pH 7.4
[2] = target: biotinylated FcRn (Acro Biosystems) (UniProt P55899); assay: BLI (Octet RED96e), steady state; biotinylated FcRn on SA tips, hu4D5 Fc variant 1000-31.25 nM, pH 6.0
[3] = target: soluble HCMV gp34 ectodomain with C150S (gp34-M) (human cytomegalovirus (HCMV), strain AD169) (UniProt P16809); assay: SPR (Biacore X100), kinetic KD; gp34-M captured by anti-strep Fab on CM5, hu4D5 Fc variant injected; 1:1 fit
[4] = target: soluble truncated HCMV gp68 ectodomain (t-gp68) (human cytomegalovirus (HCMV)) (UniProt F5HC14); assay: SPR (Biacore X100), equilibrium (steady state) KD; t-gp68 captured by anti-strep Fab, hu4D5 Fc variant injected
[5] = target: soluble truncated HCMV gp68 ectodomain (t-gp68) (human cytomegalovirus (HCMV)) (UniProt F5HC14); assay: SPR (Biacore X100), kinetic KD; t-gp68 captured by anti-strep Fab on CM5, hu4D5 Fc variant injected; 2:1 fit, first kinetic constants
[6] = target: HCMV AD169 gpRL12 ectodomain displayed on ExpiCHO cells (human cytomegalovirus (HCMV), strain AD169) (UniProt P16810); assay: flow cytometry, ExpiCHO cells displaying the ectodomain, goat anti-Fc gamma-AF647, 4PL fit; EC50 unit inferred, x axis IgG (nM)
[7] = target: HCMV Merlin gpRL12 ectodomain displayed on ExpiCHO cells (human cytomegalovirus (HCMV), strain Merlin) (UniProt Q6SWD0); assay: as above
[8] = target: HCMV Merlin gpRL13 ectodomain displayed on ExpiCHO cells (human cytomegalovirus (HCMV), strain Merlin) (UniProt Q6SWC9); assay: as above
[9] = target: HCMV gp34 ectodomain displayed on ExpiCHO cells (human cytomegalovirus (HCMV)) (UniProt P16809); assay: as above
[10] = target: HCMV gp68 ectodomain displayed on ExpiCHO cells (human cytomegalovirus (HCMV)) (UniProt P16739); assay: as above
[11] = target: HCMV viral Fcγ receptors (vFcγRs) on AD169-infected cells; assay: cell-based or functional assay
[12] = target: human CD16A ectodomain fused to mouse CD3 zeta, on BW5147 reporter cells (human; mouse) (UniProt P08637); assay: cell-based or functional assay
Chain of human CD16A ectodomain fused to mouse CD3 zeta, on BW5147 reporter cells (human; mouse) (P08637 other isoform, or with tags, fused parts or gaps limits assumed): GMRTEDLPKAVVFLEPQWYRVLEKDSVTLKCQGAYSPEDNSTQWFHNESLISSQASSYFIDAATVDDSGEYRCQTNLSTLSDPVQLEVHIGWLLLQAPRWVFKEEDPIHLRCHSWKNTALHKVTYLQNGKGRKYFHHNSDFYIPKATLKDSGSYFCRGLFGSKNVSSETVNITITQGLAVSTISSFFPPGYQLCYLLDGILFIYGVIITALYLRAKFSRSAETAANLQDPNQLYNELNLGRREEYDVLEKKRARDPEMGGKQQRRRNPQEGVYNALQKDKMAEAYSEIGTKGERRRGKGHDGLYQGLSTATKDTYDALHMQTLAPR

[13] = target: HCMV glycoprotein B (gB) on HCMV-infected MRC5 fibroblasts (human cytomegalovirus (HCMV), strain AD169) (UniProt P06473); assay: flow cytometry on AD169-infected MRC5 cells, anti-human Fcγ-AF647
[14] = target: HCMV glycoprotein B (gB) on HCMV-infected MRC5 fibroblasts (human cytomegalovirus (HCMV), strain AD169) (UniProt P06473); assay: flow cytometry on AD169-infected fibroblasts, 67 nM antibody; gB and vFcγRs both capture
[15] = target: HCMV glycoprotein B (gB) on HCMV-infected MRC5 fibroblasts (human cytomegalovirus (HCMV), strain AD169) (UniProt P06473); assay: flow cytometry, 67 nM antibody on ΔΔΔ-infected fibroblasts (vFcγRs deleted), anti-huFc detection
[16] = target: HCMV glycoprotein B (gB) on HCMV-infected MRC5 fibroblasts (human cytomegalovirus (HCMV), strain AD169) (UniProt P06473); assay: flow cytometry, 67 nM antibody on AD169-infected fibroblasts, anti-huFc detection (vFcγRs also present)
[17] = target: HCMV glycoprotein B (gB) on HCMV-infected MRC5 fibroblasts (human cytomegalovirus (HCMV), strain AD169) (UniProt P06473); assay: flow cytometry on AD169-infected fibroblasts, 67 nM antibody with soluble gp34-M (100 nM) and/or t-gp68 (2000 nM)
[18] = target: soluble HCMV gp34 ectodomain with C150S (gp34-M) (human cytomegalovirus (HCMV), strain AD169) (UniProt P16809); assay: ELISA, gB coated at 2 ug/mL, antibody 100 ug/mL, Gp34 diluted from 50 ug/mL, anti-flag-M2-HRP 1/1000 (table on the sheet)
[19] = target: soluble truncated HCMV gp68 ectodomain (t-gp68) (human cytomegalovirus (HCMV)) (UniProt F5HC14); assay: ELISA, gB coated at 2 ug/mL, antibody 100 ug/mL, Gp68 diluted from 50 ug/mL, anti-flag-M2-HRP 1/1000 (table on the sheet)
[20] = target: HCMV viral Fcγ receptors (vFcγRs) on AD169-infected cells; assay: flow cytometry, 67 nM antibody on AD169-infected fibroblasts, anti-huFc detection
[21] = target: HCMV viral Fcγ receptors (vFcγRs) on AD169-infected cells; assay: flow cytometry on AD169-infected fibroblasts, 67 nM antibody
[22] = target: HCMV Merlin gpRL13 ectodomain displayed on ExpiCHO cells (human cytomegalovirus (HCMV), strain Merlin) (UniProt Q6SWC9); assay: flow cytometry, ExpiCHO cells displaying the ectodomain, hu4D5 Fc variant titrated, goat anti-Fc gamma-AF647
[23] = target: HCMV glycoprotein B (gB) on HCMV-infected MRC5 fibroblasts (human cytomegalovirus (HCMV), strain AD169) (UniProt P06473); assay: flow cytometry on AD169-infected fibroblasts, 67 nM antibody

Chain of biotinylated FcRn (Acro Biosystems) (P55899 24-297 limits assumed, chain 1 of 2): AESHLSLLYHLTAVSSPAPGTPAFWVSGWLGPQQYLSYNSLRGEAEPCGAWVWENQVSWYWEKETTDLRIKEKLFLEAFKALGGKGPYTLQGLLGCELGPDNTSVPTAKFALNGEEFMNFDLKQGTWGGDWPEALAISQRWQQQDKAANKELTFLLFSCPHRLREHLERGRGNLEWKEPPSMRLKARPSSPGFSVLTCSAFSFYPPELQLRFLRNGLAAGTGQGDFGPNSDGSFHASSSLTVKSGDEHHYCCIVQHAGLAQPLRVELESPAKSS
Chain of biotinylated FcRn (Acro Biosystems) (chain, as listed by the source limits assumed, chain 2 of 2): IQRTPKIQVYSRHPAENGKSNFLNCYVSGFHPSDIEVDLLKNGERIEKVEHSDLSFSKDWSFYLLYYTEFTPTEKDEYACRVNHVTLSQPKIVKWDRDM
Chain of human CD16A F158 allotype (human) (P08637 17-208 limits assumed): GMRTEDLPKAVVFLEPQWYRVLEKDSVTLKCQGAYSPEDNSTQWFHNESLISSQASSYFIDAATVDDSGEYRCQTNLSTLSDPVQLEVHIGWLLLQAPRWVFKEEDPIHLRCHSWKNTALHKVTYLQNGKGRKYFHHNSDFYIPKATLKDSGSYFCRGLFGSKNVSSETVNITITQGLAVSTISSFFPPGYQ

hu4D5 antibody with wild-type human IgG1 Fc
pKd [1]: 6.00
pKd [2]: 7.22
pKd [3]: 8.14
pKd [4]: 7.10
pKd [5]: 7.16
pEC50 [6]: 7.13
pEC50 [7]: 7.70
pEC50 [8]: 7.26
pEC50 [9]: 7.40
pEC50 [10]: 7.92

SM5-1 (anti-gB) with wild-type human IgG1 Fc (antibody)
NK-92 V158 degranulation (CD107a, % cells), AD169/GFP-infected MRC5, 20 µg/ml [11]: 5%
internalization by AD169-infected MRC5 (pHrodo, %) [11]: 37%
internalization by AD169-infected MRC5 cells (%) [11]: 35%
internalization by AD169-infected cells (pHrodo, %) [11]: 50%
internalization by ΔΔΔ-infected cells (vFcγRs deleted; pHrodo, %) [11]: 7%
internalization in the presence of soluble gp34-M, t-gp68, or both (%) [11]: 0 to 5%
CD16A activation, EC50 (mIL-2 of BW-CD16A-ζ reporter cells), AD169-infected MRC5 [12]: 0.0128 ng/mL
CD16A activation, EC50 (mIL-2 of BW-CD16A-ζ reporter cells), ΔΔΔ-infected MRC5 [12]: 0.00063 ng/mL
percent of cells stained [13]: 70%
percent of cells bound [14]: 75%
percent of cells stained [15]: 80%
percent of cells stained [16]: 80%
percent of cells bound [17]: 60%
EC50 (read off the curve) [18]: 200 ng/mL
EC50 (read off the curve) [19]: 400 ng/mL

human IgG1 isotype control antibody
internalization by AD169-infected cells (pHrodo, %) [11]: 10%
percent of cells stained [20]: 35%

2B1 control antibody with mouse IgG2a Fc and an irrelevant Fab
percent of cells bound [21]: 5%

2B1 control antibody with human IgG1 Fc and an irrelevant Fab
internalization by AD169-infected MRC5 (pHrodo, %) [11]: 20%
internalization in the presence of soluble gp34-M, t-gp68, or both (%) [11]: 0 to 5%
percent of cells bound [21]: 40%

hu4D5 antibody with G2 Fc (R255Q, H268L, E294K, Q311L, K334E)
pKd [1]: 6.00
pKd [2]: 7.30
pKd [3]: 6.49
pKd [4]: 5.74
EC50 (read off the curve) [22]: 30 nM
pKd [5]: 5.32
pEC50 [6]: 7.09
pEC50 [9]: 6.39

hu4D5 antibody with G5 Fc (R255Q, S337F)
pKd [1]: 6.00
pKd [2]: 7.05
pKd [3]: 7.48
pKd [4]: 6.07
pKd [5]: 5.68
pEC50 [6]: 7.40
pEC50 [7]: 7.82
pEC50 [8]: 6.64
pEC50 [9]: 6.39

SM5-1 (anti-gB) with mouse IgG2a Fc (antibody)
percent of cells bound [23]: 60%
